# In FireProtDB (doi:10.1016/j.bpc.2007.01.004):
# Values joined by “and” are separate entries in the source; they are usually repeats but may differ in a detail not shown here. Identical values can stand only once.
# Settings: Alicyclobacillus acidocaldarius subsp. acidocaldarius, pH 7.5, Phosphate 20 mM, reversible: Yes; for denaturant midpoint (higher = more stable): 20 °C
substance,measurement,setting,value
wild type (from UniProt Q7SIG1),denaturant midpoint (higher = more stable),"GdnHCl, CD",1.9 M and 2.2 M
same,denaturant midpoint (higher = more stable),"GdnHCl, Fluorescence",1.9 M and 2 M and 2.2 M
same,denaturant midpoint (higher = more stable),"Urea, CD",5.9 M and 4.6 M
same,Tm,"Thermal, CD",91 °C and 86 °C
same,unfolding enthalpy (van 't Hoff),"Thermal, CD",105 kcal/mol and 122 kcal/mol and 62.1 kcal/mol
same,Tm,"Thermal, DSC",86 °C
same,heat capacity change of unfolding,"Thermal, DSC",3.82 kcal/mol/K
same,unfolding enthalpy (calorimetric),"Thermal, DSC",265 kcal/mol and 179 kcal/mol
same,unfolding enthalpy (van 't Hoff),"Thermal, DSC",127 kcal/mol and 83.7 kcal/mol
same,heat capacity change of unfolding,"Thermal, DSC, transition: 3",1.67 kcal/mol/K and 2.15 kcal/mol/K
